One experiment deals with T1, Aβ1-40 (human, UniProt P05067 672-711).
T1 construct: domain: Aβ1-40; Used as a soluble peptide (ELISA), as fibrils (fAβ40 pulldown) and as expressed in TgBRI-Aβ40, Tg2576 and CRND8 mice (plasma complexes); also called Aβ40; human Aβ40
Put plainly: pulldown of conditioned media of transfected 293T cells with fibrillar Aβ40, western blot with anti-His. Here is the method:
(§1) Fibrillar Aβ pulldown assays. One mL of conditioned media from 293T HEK cells transiently transfected with pSecTag palsmids encoding the anti-Aβ scFv was incubated with 10 μg of fibrillar Aβ40 or Aβ42 (fAβ) at 4° C. for 1 hour. The fibrils were then spun down and resuspended in SDS-PAGE loading buffer. The presence of scFv was determined by western blot with rabbit anti-His (Bethyl). To determine the Aβ40 binding properties of scFv secreted into the media, capture ELISA was used with Aβ40 peptide as capture and anti-myc-HRP, 1:2000, as detection.
(§2) Prior to testing the effects of the scFv in vivo, the anti-Aβ scFvs expressed from 293T cells were characterized.
(In general: A western blot detects proteins with antibodies after separation by electrophoresis.)

A further experiment deals with T2, Aβ1-42 (human, UniProt P05067 672-713).
T2 construct: domain: Aβ1-42; also called Aβ42; fAβ42 (fibrillar form in the pulldown)
Put plainly: pulldown of conditioned media of transfected 293T cells with fibrillar Aβ42, western blot with anti-His. Here is the method:
as §1, §2

T1 sequence (P05067 672-711 limits assumed): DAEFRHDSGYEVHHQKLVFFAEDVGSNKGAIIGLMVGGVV
T2 sequence (P05067 672-713 limits assumed): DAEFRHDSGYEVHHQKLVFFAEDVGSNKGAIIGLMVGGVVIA

B1: scFv42.2 (scFv)
scFv: EVQLQQSGPELVKPGASGKISCKTSGYTFSENTMHWVKQSHGKSLEWIGGINPNTGATYYNQKFKGKATLTVDTSSSTAYLELRSLTSADSAVYYCVRNGLLTLGAMDYWGQGTSVTVSSGGGGSGGGGSGGGGSDVVMTQTPLSLPVSLGDQASISCRSSQSLVHSNGNTYLYWCLQKPGQSPKLLIYKVSSRFSGVPDRFSGSGSGTDFTLKISRVEAEDLGVYFCSQSTHAPLTFGAGTKLELKR
notes: VH-linker-VL from mAb42.2; secreted from 293T HEK cells (pSecTag), detected by anti-His and anti-myc; Tested as conditioned medium; also called anti-Aβ42 specific scFv42.2
As to B1, the figures for the binding result in the experiment with Aβ1-40 and with Aβ1-42 were “no binding” and “binds”, respectively.

B2: scFv40.1 (scFv)
scFv: EVQLQQSGADLVKPGASVKLSCTASGFNIKATYMHWVRQRPEQGLEWIGRIDPANGDTKYDPKFQGKATLTVDTSSNTAYLQLSSLTSEDTAVYYCSTLYYREAYWGQGTLVTVSAGGGGSGGGSGGGGSDVVMTQTPLTLSVTIGQPASISCKSSQRLIYSDGKTYLNWLLQRPGQSPKRLIYLVSKLDSGVPDRFTGSGSGTDFTLKISRVEAEDLGVYYCWQGTHFPVTFGAGTKLELKR
notes: VH-linker-VL from mAb40.1; secreted from 293T HEK cells (pSecTag), detected by anti-His and anti-myc; Tested as conditioned medium
For B2, the binding result with Aβ1-40 is listed as “binds”.

The record behind these values is US20100104577A1 (published 2010).
